Legend:
[1] = target: cap2_human CAP2 (UniProt P40123)
[2] = target: cof2_human CFL2 (UniProt Q9Y281)
[3] = target: cap2_human CAP2 (UniProt P40123); remark: listed apart in the source
[4] = target: cof2_human CFL2 (UniProt Q9Y281); remark: listed apart in the source
[5] = target: cap2_human CAP2 (UniProt P40123); remark: listed apart in the source
[6] = target: tfcp2_human TFCP2 (UniProt Q12800)
[7] = target: goga2_human GOLGA2 (UniProt Q08379)
[8] = target: T1, cep70_human CEP70 (UniProt Q8NHQ1)
T1 sequence: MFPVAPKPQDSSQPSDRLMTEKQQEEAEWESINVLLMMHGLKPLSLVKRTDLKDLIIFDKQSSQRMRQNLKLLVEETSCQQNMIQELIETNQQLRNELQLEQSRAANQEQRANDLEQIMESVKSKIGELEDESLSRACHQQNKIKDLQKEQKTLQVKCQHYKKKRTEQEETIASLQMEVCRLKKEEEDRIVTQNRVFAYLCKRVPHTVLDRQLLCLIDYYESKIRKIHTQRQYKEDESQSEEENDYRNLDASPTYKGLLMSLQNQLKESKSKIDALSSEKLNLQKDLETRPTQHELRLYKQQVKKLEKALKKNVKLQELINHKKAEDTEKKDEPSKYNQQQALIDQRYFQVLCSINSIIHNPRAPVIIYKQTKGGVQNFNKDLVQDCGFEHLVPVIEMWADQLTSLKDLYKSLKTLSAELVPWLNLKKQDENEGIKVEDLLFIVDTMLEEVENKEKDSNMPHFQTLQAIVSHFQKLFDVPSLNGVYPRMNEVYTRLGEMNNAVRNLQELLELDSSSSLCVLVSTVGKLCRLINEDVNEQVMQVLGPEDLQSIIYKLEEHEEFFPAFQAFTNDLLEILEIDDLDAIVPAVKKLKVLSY

[9] = target: tsg10_human TSGA10 (UniProt Q9BZW7)
[10] = target: tfcp2_human TFCP2 (UniProt Q12800); remark: listed apart in the source
[11] = target: T2, fsd2_human FSD2 (UniProt A1L4K1)
T2 sequence: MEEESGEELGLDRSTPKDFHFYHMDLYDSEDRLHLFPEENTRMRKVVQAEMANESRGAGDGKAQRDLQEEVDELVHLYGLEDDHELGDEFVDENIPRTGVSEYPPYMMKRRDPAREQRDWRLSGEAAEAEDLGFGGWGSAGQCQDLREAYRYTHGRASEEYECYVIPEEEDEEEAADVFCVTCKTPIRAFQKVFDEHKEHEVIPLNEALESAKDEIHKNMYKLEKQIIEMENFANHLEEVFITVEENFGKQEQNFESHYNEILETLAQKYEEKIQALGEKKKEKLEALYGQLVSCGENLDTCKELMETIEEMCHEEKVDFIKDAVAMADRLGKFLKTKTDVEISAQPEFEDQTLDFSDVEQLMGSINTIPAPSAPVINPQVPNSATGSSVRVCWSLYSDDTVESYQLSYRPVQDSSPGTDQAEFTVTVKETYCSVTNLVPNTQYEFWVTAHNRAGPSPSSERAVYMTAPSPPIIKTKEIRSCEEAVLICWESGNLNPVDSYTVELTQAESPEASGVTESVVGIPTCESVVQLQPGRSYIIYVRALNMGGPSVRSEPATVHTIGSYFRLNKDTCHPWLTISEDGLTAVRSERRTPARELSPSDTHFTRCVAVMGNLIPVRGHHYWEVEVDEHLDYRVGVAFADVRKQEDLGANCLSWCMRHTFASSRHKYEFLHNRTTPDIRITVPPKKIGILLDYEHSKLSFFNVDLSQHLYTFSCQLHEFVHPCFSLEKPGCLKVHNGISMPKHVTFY

[12] = target: hem1_human ALAS1 (UniProt P13196)
[13] = target: T3, kash5_human KASH5 (UniProt Q8N6L0)
T3 sequence: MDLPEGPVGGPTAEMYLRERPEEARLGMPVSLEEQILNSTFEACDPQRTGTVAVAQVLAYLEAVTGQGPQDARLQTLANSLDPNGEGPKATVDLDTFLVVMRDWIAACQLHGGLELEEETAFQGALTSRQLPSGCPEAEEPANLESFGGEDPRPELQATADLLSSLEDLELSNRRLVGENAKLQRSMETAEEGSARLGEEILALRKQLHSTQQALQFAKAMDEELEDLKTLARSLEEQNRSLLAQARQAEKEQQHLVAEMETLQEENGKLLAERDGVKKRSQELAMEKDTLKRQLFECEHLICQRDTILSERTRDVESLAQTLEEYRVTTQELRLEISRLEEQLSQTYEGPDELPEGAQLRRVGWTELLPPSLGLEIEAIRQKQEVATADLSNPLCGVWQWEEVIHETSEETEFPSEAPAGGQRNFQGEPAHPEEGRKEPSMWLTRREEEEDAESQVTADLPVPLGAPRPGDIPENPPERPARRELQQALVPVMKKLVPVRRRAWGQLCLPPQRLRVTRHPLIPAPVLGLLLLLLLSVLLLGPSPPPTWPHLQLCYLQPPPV

[14] = target: MTUS2, Q5JR59-3
[15] = target: T4, SYNE4, Q8N205-2
T4 sequence: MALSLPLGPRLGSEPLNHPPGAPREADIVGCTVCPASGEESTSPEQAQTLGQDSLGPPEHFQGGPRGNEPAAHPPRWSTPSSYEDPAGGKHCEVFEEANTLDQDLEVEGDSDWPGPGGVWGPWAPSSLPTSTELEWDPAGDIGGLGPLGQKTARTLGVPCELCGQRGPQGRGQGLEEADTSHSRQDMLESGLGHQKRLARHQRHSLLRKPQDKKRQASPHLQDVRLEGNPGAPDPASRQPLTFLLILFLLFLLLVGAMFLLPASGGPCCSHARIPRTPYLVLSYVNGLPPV

[16] = target: T5, tmm79_human TMEM79 (UniProt Q9BSE2)
T5 sequence: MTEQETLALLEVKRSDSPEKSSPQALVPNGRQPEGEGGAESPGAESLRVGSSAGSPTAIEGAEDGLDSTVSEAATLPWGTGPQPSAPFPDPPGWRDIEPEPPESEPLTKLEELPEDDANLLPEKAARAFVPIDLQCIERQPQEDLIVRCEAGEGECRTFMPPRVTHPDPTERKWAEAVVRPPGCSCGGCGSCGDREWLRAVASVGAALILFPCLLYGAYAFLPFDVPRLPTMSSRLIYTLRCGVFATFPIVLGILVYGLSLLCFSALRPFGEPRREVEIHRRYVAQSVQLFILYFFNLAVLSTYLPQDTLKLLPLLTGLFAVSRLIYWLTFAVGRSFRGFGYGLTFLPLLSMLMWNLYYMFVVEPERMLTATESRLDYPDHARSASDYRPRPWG

[17] = target: T6, smim3_human SMIM3 (UniProt Q9BZL3)
T6 sequence: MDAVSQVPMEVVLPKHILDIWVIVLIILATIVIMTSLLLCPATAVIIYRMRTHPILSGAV

[18] = target: T5, tmm79_human TMEM79; remark: listed apart in the source
[19] = target: T6, smim3_human SMIM3; remark: listed apart in the source
[20] = target: kxdl1_human KXD1 (UniProt Q9BQD3)
[21] = target: TNNT1, P13805-3
[22] = target: ifit3_human IFIT3 (UniProt O14879)
[23] = target: syce1_human SYCE1 (UniProt Q8N0S2)
[24] = target: CAGE1, Q8TC20-4
[25] = target: tfpt_human TFPT (UniProt P0C1Z6)
[26] = target: ifit3_human IFIT3 (UniProt O14879); remark: listed apart in the source
[27] = target: md1l1_human MAD1L1 (UniProt Q9Y6D9)
[28] = target: goga2_human GOLGA2 (UniProt Q08379); remark: listed apart in the source
[29] = target: T7, efhc2_human EFHC2 (UniProt Q5JST6)
T7 sequence: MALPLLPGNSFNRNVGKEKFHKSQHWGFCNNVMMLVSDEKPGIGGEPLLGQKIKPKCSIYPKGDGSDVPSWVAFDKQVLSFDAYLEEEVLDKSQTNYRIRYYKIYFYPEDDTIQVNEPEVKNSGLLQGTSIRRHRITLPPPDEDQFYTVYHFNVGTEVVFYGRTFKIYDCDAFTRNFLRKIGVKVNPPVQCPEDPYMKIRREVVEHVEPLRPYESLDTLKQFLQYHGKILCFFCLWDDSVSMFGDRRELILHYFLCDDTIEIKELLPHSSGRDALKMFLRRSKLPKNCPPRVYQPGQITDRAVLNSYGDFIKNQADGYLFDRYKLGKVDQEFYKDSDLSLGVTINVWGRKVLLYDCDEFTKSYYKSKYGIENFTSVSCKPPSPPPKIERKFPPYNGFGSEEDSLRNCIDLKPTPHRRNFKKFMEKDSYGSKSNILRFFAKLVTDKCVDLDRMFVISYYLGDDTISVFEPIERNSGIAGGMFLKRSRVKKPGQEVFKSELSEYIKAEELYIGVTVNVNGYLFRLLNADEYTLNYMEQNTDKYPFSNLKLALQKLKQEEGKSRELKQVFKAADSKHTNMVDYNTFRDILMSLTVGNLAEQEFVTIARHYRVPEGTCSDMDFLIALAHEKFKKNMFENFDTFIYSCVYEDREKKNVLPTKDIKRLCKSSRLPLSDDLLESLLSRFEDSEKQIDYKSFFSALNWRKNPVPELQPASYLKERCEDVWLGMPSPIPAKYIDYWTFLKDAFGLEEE

Sequence of tfcp2_human TFCP2 (Q12800 whole entry): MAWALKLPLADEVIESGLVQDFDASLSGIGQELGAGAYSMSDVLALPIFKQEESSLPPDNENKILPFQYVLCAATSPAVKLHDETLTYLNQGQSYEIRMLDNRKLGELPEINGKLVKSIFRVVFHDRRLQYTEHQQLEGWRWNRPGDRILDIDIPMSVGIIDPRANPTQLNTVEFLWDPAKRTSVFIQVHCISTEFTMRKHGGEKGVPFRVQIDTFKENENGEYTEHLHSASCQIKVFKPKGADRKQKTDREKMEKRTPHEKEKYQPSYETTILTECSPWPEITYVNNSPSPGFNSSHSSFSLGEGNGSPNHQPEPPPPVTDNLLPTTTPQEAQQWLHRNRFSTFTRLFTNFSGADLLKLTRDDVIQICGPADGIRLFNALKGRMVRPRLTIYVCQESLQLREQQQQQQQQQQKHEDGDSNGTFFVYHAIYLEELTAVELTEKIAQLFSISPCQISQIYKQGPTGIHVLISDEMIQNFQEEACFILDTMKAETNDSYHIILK
Sequence of Tropomyosin alpha-1 chain (Homo sapiens), P09493-10 E40K (P09493 other isoform, or with tags, fused parts or gaps E40K): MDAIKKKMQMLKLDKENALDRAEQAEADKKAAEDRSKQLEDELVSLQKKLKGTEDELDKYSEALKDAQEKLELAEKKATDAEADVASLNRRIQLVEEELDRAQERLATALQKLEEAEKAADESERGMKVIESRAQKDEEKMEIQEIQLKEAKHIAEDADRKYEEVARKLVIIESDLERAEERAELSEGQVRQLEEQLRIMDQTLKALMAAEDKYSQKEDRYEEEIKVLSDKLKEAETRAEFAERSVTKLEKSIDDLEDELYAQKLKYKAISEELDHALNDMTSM
Sequence of ifit3_human IFIT3 (O14879 whole entry): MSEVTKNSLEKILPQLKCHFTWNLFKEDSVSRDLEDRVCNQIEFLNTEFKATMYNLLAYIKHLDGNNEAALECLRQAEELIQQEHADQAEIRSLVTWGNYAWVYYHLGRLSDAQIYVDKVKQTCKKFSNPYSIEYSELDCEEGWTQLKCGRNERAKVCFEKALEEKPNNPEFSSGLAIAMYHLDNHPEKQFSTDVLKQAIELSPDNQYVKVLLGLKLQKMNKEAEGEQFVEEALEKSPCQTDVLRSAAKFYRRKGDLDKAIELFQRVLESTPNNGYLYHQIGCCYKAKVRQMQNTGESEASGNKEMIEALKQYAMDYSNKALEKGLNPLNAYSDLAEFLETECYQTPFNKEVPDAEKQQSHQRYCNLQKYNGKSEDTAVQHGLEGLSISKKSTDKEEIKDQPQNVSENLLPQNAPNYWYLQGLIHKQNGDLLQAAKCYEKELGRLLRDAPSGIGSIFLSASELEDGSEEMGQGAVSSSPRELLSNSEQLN
Sequence of goga2_human GOLGA2 (Q08379 whole entry): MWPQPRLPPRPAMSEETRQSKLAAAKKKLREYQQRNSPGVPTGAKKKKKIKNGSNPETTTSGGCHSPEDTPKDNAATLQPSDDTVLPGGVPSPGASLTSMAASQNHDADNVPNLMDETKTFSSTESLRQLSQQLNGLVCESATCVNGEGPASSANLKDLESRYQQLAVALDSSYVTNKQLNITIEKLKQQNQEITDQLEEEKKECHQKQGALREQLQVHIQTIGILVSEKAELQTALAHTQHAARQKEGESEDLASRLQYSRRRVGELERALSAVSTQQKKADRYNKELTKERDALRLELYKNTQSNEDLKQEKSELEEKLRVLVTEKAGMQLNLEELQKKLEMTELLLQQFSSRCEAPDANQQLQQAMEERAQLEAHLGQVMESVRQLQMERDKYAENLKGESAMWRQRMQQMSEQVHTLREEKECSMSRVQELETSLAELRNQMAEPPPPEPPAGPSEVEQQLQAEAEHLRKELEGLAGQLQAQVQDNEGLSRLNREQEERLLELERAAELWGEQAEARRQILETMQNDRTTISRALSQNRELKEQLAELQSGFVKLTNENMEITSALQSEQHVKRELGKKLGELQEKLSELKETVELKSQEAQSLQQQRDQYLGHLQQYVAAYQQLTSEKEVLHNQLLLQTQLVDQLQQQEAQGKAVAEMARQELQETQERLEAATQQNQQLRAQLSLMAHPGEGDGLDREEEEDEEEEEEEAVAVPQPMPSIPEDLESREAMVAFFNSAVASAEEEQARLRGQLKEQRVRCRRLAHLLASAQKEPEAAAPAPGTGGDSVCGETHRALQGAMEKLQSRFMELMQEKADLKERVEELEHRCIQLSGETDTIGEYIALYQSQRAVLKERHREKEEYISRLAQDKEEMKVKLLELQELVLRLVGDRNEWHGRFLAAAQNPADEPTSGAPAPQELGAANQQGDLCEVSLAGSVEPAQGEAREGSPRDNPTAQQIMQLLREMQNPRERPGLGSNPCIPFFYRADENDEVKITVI
Sequence of MTUS2, Q5JR59-3 (Q5JR59 other isoform, or with tags, fused parts or gaps): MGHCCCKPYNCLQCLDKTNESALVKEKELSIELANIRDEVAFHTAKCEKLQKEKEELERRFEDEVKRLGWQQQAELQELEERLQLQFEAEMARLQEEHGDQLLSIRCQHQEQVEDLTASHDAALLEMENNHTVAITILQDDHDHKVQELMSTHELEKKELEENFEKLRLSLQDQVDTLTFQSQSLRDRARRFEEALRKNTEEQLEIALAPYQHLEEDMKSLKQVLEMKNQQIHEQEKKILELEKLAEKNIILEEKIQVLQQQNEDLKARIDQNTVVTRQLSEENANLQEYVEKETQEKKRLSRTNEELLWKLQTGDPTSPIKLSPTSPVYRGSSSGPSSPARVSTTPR
Sequence of CAGE1, Q8TC20-4 (Q8TC20 other isoform, or with tags, fused parts or gaps): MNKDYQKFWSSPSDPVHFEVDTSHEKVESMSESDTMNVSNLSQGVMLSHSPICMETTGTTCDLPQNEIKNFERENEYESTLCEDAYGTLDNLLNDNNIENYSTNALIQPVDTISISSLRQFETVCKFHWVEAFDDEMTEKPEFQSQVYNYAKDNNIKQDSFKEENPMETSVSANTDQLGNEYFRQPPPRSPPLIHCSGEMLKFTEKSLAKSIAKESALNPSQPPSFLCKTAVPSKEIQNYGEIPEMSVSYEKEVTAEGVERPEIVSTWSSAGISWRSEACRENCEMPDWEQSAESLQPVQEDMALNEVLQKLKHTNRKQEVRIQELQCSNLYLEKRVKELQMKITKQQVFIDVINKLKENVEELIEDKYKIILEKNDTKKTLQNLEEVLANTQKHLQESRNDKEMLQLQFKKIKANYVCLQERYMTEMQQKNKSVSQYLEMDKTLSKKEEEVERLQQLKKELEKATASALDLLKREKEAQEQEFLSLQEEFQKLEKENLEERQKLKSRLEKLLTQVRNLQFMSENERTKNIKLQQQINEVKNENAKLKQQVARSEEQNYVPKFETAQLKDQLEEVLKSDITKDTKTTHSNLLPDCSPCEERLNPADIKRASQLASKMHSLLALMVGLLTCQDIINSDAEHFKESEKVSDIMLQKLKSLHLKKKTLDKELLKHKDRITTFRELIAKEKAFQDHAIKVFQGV
Sequence of tsg10_human TSGA10 (Q9BZW7 whole entry): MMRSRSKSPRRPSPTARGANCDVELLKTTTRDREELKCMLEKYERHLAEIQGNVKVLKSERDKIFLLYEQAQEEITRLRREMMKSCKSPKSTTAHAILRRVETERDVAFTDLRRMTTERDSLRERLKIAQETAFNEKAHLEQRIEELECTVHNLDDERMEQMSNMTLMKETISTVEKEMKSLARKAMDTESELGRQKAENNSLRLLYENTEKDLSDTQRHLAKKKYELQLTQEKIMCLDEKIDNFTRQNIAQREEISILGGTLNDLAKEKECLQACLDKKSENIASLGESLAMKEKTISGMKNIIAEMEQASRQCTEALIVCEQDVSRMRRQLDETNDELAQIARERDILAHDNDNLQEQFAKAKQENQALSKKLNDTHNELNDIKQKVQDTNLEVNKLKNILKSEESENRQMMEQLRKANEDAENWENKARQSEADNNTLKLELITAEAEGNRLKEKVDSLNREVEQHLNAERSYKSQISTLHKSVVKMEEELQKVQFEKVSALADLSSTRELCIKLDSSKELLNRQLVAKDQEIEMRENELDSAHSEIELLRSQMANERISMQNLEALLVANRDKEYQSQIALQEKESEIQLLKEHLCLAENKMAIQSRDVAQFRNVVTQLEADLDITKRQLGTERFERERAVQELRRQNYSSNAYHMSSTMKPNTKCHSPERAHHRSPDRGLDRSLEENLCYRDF
Sequence of kxdl1_human KXD1 (Q9BQD3 whole entry): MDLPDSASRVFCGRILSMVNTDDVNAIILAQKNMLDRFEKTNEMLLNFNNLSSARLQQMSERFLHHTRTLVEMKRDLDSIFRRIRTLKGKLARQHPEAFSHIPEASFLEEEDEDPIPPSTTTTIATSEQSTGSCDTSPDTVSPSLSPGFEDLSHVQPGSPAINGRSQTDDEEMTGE
Sequence of TNNT1, P13805-3 (P13805 other isoform, or with tags, fused parts or gaps): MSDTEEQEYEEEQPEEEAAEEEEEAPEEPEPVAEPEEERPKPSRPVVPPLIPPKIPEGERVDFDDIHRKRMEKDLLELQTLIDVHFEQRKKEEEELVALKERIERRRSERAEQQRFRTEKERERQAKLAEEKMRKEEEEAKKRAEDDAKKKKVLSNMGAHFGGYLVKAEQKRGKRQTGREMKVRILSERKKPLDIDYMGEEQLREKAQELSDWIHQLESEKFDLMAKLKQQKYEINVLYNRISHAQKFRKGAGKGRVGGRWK
Sequence of tfpt_human TFPT (P0C1Z6 whole entry): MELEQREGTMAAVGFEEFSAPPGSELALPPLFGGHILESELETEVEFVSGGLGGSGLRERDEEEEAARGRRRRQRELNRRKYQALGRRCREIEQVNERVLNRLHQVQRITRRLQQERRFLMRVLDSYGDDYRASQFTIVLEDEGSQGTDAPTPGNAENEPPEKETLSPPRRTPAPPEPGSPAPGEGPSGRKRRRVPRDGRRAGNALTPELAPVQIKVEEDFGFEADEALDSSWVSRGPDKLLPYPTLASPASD

Actin, cytoplasmic 1 (Homo sapiens) (from UniProt P60709) E364K
effect of a mutation on the interaction [1]: disrupting interaction strength
effect of a mutation on the interaction [2]: disrupting interaction strength

Actin, cytoplasmic 2 (Homo sapiens) (from UniProt P63261) T89I
effect of a mutation on the interaction [3]: causing an interaction
effect of a mutation on the interaction [4]: with no effect
effect of a mutation on the interaction [5]: with no effect

Carbonic anhydrase 1 (Homo sapiens), P00915 H68R
effect of a mutation on the interaction [6]: with no effect

Carbonic anhydrase 1 (Homo sapiens), P00915 R247H
effect of a mutation on the interaction [6]: with no effect

Parafibromin (Homo sapiens) (from UniProt Q6P1J9) L64P
effect of a mutation on the interaction [7]: disrupting interaction strength
effect of a mutation on the interaction [8]: disrupting interaction strength
effect of a mutation on the interaction [9]: disrupting interaction strength
effect of a mutation on the interaction [10]: disrupting interaction strength
effect of a mutation on the interaction [11]: disrupting interaction strength
effect of a mutation on the interaction [12]: disrupting interaction strength
effect of a mutation on the interaction [13]: disrupting interaction strength
effect of a mutation on the interaction [14]: disrupting interaction strength

Surfactant protein C (Homo sapiens) (from UniProt P11686) C189G
effect of a mutation on the interaction [15]: with no effect
effect of a mutation on the interaction [16]: disrupting interaction strength
effect of a mutation on the interaction [17]: causing an interaction
effect of a mutation on the interaction [18]: with no effect
effect of a mutation on the interaction [19]: with no effect

Surfactant protein C (Homo sapiens) (from UniProt P11686) Y104H
effect of a mutation on the interaction [15]: with no effect
effect of a mutation on the interaction [16]: disrupting interaction strength
effect of a mutation on the interaction [17]: causing an interaction
effect of a mutation on the interaction [18]: with no effect
effect of a mutation on the interaction [19]: with no effect

Tropomyosin alpha-1 chain (Homo sapiens), P09493-10 E40K
effect of a mutation on the interaction [20]: with no effect
effect of a mutation on the interaction [21]: with no effect
effect of a mutation on the interaction [22]: causing an interaction
effect of a mutation on the interaction [23]: with no effect
effect of a mutation on the interaction [24]: with no effect
effect of a mutation on the interaction [25]: with no effect
effect of a mutation on the interaction [26]: with no effect
effect of a mutation on the interaction [27]: with no effect
effect of a mutation on the interaction [28]: disrupting interaction strength

Voltage-dependent L-type calcium channel subunit beta-4 (Homo sapiens) (from UniProt O00305) C104F
effect of a mutation on the interaction [29]: with no effect

Voltage-dependent L-type calcium channel subunit beta-4 (Homo sapiens) (from UniProt O00305) R468Q
effect of a mutation on the interaction [29]: with no effect

Reference: IntAct's records for PubMed 25910212
